Results as given in the Human Domainome abundance scans (Beltran et al. 2025).

B1: E3 ubiquitin-protein ligase TRIM36, residues 208 to 252; numbered along this chain, Q9NQ86 (parent)
chain: KILMCPEHETERINMYCELCRRPVCHLCKLGGNHANHRVTTMSSA

Variants of: B1
Assay: abundance fitness (aPCA) (normalised: wild type 0, dead -1); higher = more abundant; growth selection in yeast, the domain comes from the species named
Details: Homo sapiens

Abundance fitness of substitutions, site by site:
A35: H -0.149; Y -0.137; T -0.068; Q -0.05; I 0.255; P -0.182; K -0.078; V -0.011; R -0.129
H8: W -1.6; M -1.4; S -0.786; K -0.638; G -0.766; C -0.611
R21: W -0.416; G -0.116; L -0.084; S -0.002; T -0.061; P -0.387
R22: E 0.034; A 0.01; M -0.163
L30: N 0.042; C -0.023; V 0.026; I -0.05; D 0.083; Y -0.549; P 0.005; G 0.073; W -0.203; T 0.096; H -0.078; E 0.09; S 0.075; M -0.041
E18: N -0.151; W -0.236; D 0.116; G -0.123; K -0.172; C -0.209; S -0.148
S43: L -0.181; W -0.352; N -0.042; G -0.022; M -0.13; V -0.075; E 0.083
K1: A -0.25; H -0.283; W -0.508; F -0.167; V -0.243; C -0.573; S -0.396; N -0.101; I -0.291
C17: Y -0.862; S -0.897; T -0.796; W -1.16; R -0.909
K29: F 0.001; D 0.126; E 0.048; A 0.012; C -0.07; L 0.039; T -0.009; P -0.043; M -0.057; N 0.072; V 0.004
A45: K -0.265; T -0.143; D 0.078; R -0.112; V -0.091; S -0.074
G32: A 0.028; D -0.003; V -0.163; E 0.089; Q -0.036; L -0.144; P -0.015; T -0.07; S -0.045; K -0.129
M42: K 0.079; L -0.031; V 0.001; D 0.039; I -0.282; H -0.524; N -0.059; Y -0.134; S 0.06; Q 0.067; E 0.16; W -0.071; T 0.097
H37: L -0.26; G -0.127; F -0.486; A -0.027; N -0.231; K -0.176
N14: P -0.195; D -0.13; K 0.036; Y -0.065
C20: I -1.01; S -0.679; A -0.652; F -1.37; D -0.393; L -0.591; H -0.665
T40: F -0.317; M -0.318; H -0.146; R -0.089; V -0.023; P 0.003; Y -0.191; Q -0.014
N36: L -0.097; D -0.005; Q 0.021; F -0.017; I -0.225; C -0.017; Y -0.147; K -0.023; M -0.109; A 0.029; H -0.05
V24: E -0.293; R -0.44; S -0.446; K -0.533; P -0.501
I13: G 0.145; R -0.143
I2: K -0.234; P -0.386; G -0.115; A -0.165; L -0.083; E -0.042; W -0.405; D 0.012; S -0.19; Y -0.532
N33: P 0.092; Y -0.153; A 0.071; E -0.003; L -0.028; F -0.125; Q 0.073; H -0.046
